According to patent US20250313631A1 (HUMMINGBIRD BIOSCIENCE PTE, published 2025):

Columns and labels:
[1] = target: T1, mouse FcRn (His-tagged, Sino Biological CT009-H08H) (mouse, UniProt Q61559 22-297); assay: BLI summary table, mFcRn, pH 5.8
T1 construct: also called mFcRn
T1 sequence (looked up): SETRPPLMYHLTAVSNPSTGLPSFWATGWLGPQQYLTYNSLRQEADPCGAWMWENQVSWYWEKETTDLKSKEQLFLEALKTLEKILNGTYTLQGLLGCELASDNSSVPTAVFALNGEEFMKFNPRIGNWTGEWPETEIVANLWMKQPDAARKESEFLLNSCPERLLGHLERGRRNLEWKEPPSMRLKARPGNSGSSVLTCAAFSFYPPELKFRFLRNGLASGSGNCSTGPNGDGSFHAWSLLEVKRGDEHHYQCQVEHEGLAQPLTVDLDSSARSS

[2] = target: T1, mouse FcRn (His-tagged, Sino Biological …); assay: BLI summary table, mFcRn, pH 5.8; remark: listed apart in the source
[3] = target: T2, mouse FcγRIIb (His-tagged, Sino Biological 50030-M08H) (mouse, UniProt P08101 30-217); assay: BLI (Octet QK384): His-tagged receptor on anti-Penta-HIS biosensor, antibody as analyte, PBS pH 7.2
T2 construct: also called mFcγRIIb
T2 sequence (looked up): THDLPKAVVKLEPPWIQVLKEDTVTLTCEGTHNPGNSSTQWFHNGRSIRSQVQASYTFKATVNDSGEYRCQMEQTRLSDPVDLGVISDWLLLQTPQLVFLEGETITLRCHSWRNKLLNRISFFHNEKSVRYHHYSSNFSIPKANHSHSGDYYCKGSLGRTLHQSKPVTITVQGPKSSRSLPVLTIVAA

[4] = target: T3, mouse FcγRIV (His-tagged, Sino Biological 50036-M08H) (mouse, UniProt A0A0B4J1G0 21-203); assay: BLI summary table, mFcgRIV, pH 7.2
T3 construct: also called mFcγRIV; not shown: the histidine tag (and any linker) of the Sino Biological construct 50036-M08H
T3 sequence: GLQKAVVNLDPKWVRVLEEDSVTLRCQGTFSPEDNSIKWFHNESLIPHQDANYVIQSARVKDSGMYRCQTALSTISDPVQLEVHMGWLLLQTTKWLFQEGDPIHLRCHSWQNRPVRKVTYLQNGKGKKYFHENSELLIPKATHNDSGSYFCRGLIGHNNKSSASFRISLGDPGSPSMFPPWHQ

[5] = target: T1, mouse FcRn (His-tagged, Sino Biological …); assay: BLI summary table, mFcRn, pH 5.8; remark: listed apart in the source
[6] = target: T1, mouse FcRn (His-tagged, Sino Biological …); assay: BLI (Octet QK384): His-tagged mFcRn on anti-Penta-HIS biosensor, antibody as analyte, PBS pH 5.8, global 1:1 fit
[7] = target: T3, mouse FcγRIV (His-tagged, Sino …); assay: BLI (Octet QK384): His-tagged receptor on anti-Penta-HIS biosensor, antibody as analyte, PBS pH 7.2; kon = ND and KD = ND are printed beside it

Kd [1]: 42.5 nM
koff [2]: 0.0075 s⁻¹
binding result [3]: no binding
koff [4]: 0.348 s⁻¹
kon [5]: 180000 M⁻¹ s⁻¹
Kd [6]: 42.5 nM
koff [6]: 0.0075 s⁻¹
kon [6]: 180000 M⁻¹ s⁻¹
koff [7]: 0.348 s⁻¹
B1: 4M2-C12 mIgG2a NQ (antibody)
heavy chain: EVKLVESGPGLVKPSQSLSLTCTVTGYSITSDYAWNWIRQFPGNKLEWMGYITYSGNISYNPSLRSRISITRDTSKNQFFLQLNSVTPEDTATYSCARSLYYPWYFDVWGAGTTVTVSSAKTTAPSVYPLAPVCGDTTGSSVTLGCLVKGYFPEPVTLTWNSGSLSSGVHTFPAVLQSDLYTLSSSVTVTSSTWPSQSITCNVAHPASSTKVDKKIEPRGPTIKPCPPCKCPAPNLLGGPSVFIFPPKIKDVLMISLSPIVTCVVVDVSEDDPDVQISWFVNNVEVHTAQTQTHREDYQSTLRVVSALPIQHQDWMSGKEFKCKVNNKDLPAPIERTISKPKGSVRAPQVYVLPPPEEEMTKKQVTLTCMVTDFMPEDIYVEWTNNGKTELNYKNTEPVLDSDGSYFMYSKLRVEKKNWVERNSYSCSVVHEGLHNHHTTKSFSRTPGK
light chain: DIVITQTPAILSTSPGEKVTMTCRASSSVGYIHWYQQKPGSSPKPWIYATSNLASGVPARFSGSGSGTSNSLTITRVEAEDAATYYCQQWSSYPPITFGGGTKLEVKRADAAPTVSIFPPSSEQLTSGGASVVCFLNNFYPKDINVKWKIDGSERQNGVLNSWTDQDSKDSTYSMSSTLTLTKDEYERHNSYTCEATHKTSTSPIVKSFNRNEC
